# Results taken from publication PMC3567400 (Biochemistry, 2013).
# B1: LnmK (Tyr62Phe) (enzyme, Streptomyces atroolivaceus S-140, UniProt Q8GGP1 2-319, looked up)
# chain: SITSSLDVRPEIKQAVTVRPGMCGPGSLFVGQLGDWTWETVSAQCDTDVFAARDASGNPTFLAFYYFRVRGGRELHPGSLTFGDRLTVTSGCYDQGTESVLTLHRIDRAGSDDAQRPLDLHEFYERPRDGSLYVENFNRWVTRSAPGSNEDLVKSSPPGFRNDGLPQLPAAYSPRAVYREARTAHTFRALDEPGFRLLPDTVEVEHPVDIVRDVNGVGLLYFASYFSMVDKAALALWRRLGRSDRAFLRRVVVDQQMCYLGNADLDSVLTLGARVRVSTETPGEELVDVVISDRDSGRVIAVSTLHTQHDAHDPKGEA
# Biological target: the molecule itself
# Assay: crystal structure
protein,measurement,value
B1,binding result,binds
